Usually EC50 stands for the concentration at which the effect is half-maximal. Lower therefore signals greater potency.

Our source for the EC50 values is CN114437205A.

In the assay the target is SARS S-his (SARS).

B1: 抗体CT150 (antibody, V domains shown)
VH: QEQLVESGGGVVQPGRSLRLSCAASGFTFSSYAMHWVRQAPGEGLEWVALISYDGDNKYYADSVKGRFTISRDNSKTTLFLQMNSLRAEDTAVYYCARDRGSYFYGVDVWGQGATVTVSS
VL: DIQLTQSPSFLSASVGDRVTITCRASQDINSYLAWYQQKPGKAPKLLIYAASTLQSGVPSRFSGSGSGTEFTLTISSLQPEDFATYYCQQLNSYPIFTFGPGTKVDIK
As to B1, the EC50 amounted to 0.129 mg/L.
